Primed or numbered codes have the meaning given here. Where no end group is shown, it is not given here. Biotin′ = not defined here

Sequences and labels used below:
T1: Non-sense standard peptide YRDDLKKLLE
T1 construct: also called non-sense peptide
T1 peptide: YRDDLKKLLE

T2: Truncated standard peptide (Truncated selection peptide) SGPEYADVV (human)
T2 construct: also called truncated peptide
T2 peptide: SGPEYADVV

T3: Elongated standard peptide (Elongated selection peptide) QDSGPEYADVV (human)
T3 construct: also called elongated peptide
T3 peptide: QDSGPEYADVV

T4: Non-sense coating peptide YRDDLKKLLE-Biotin
T4 construct: also called non-sense coater
T4 peptide: YRDDLKKLLE-{Biotin′}

B1: Standard peptide (Selection peptide) DSGPEYADVV (peptide)
peptide: DSGPEYADVV
notes: Synthetic peptide from Genscript; also called C6A6
B2: monoclonal antibody clone NBH-306-11 8E7-2C11-1F10-2C10 (antibody, mouse IgG1, kappa, V domains shown)
VH: EVKLVESGGDLVKPGGSLKLSCAASGFTFTSYAMSWVRQTPEKRLEWVASVTSGGTHYLDSVKGRFTISRDIARNILYLQMSSLRSEDTAMYFCARGVSFAYWGQGTLVTVSA
VL: DIVMTQSQKFMSTSVGDRVSVTCKASQNVGTDVVWYQQRPGQSPKALMYSASYRYSGVPDRFTGSGSGTDFTLTISNVQSEDLAEYFCQHYDNYPLTFGAGTKLELKR
notes: also called the mAb; C6A6 assay antibody

Test [1] deals with B2. Nature of the test: competitive CLIA: the free standard peptide competes with plate-coated …-K-Biotin for the HRP-labelled mAb (200 ng/mL). On the procedure: The development of a competitive chemiluminescence immunoassay (CLIA) targeting the C6A6 target sequence included several preliminary optimizing experiments where reagents, concentrations, incubation-time and -temperature were analyzed by several tests. […] The relative light units were measured at all wavelengths within 5 min on a microplate luminometer reader (SpectraMax M5, Molecular Devices, CA, USA). […] Data were analyzed using the SoftMax Pro version 7.0.3 software.
(§1) Two-fold dilutions of four human serum and two rat serum samples were used to assess linearity. Linearity was calculated as a percentage of recovery of the undiluted sample. Antibody specificity was calculated as percentage of signal inhibition by two-fold diluted standard peptide ([…] (SEQ ID NO: 1)), elongated peptide ([…] (SEQ ID NO: 2)), truncated peptide ([…] (SEQ ID NO: 3)), and non-sense peptide ([…] (SEQ ID NO: 17)). The intra- and inter-assay variation was determined by 10 independent runs of five quality controls and two kit controls run in double determinations.

For test [2], the target named is T1, Non-sense standard peptide YRDDLKKLLE
Put plainly: competitive CLIA/ELISA (signal inhibition by two-fold diluted peptide). On the procedure:
(§2) The development of a competitive chemiluminescence immunoassay (CLIA) targeting the C6A6 target sequence included several preliminary optimizing experiments where reagents, concentrations, incubation-time and -temperature were analyzed by several tests. The final C6A6 competitive ELISA procedure was as follows: A 96-well streptavidin-coated white microplate (Greiner Bio-One, Kremsmünster, Austria) was coated with 3 ng/mL biotinylated synthetic peptide ([…]-K-Biotin (SEQ ID NO: 18)) dissolved in assay buffer (10 mM phosphate buffered saline (PBS), 1% bovine serum albumin, 0.1% Tween-20, 0.36% Bronidox, 4 g/L NaCl, adjusted to pH 7.4 at 20° C.) and incubated for 30 min at 20° C. with constant shaking (300 rpm) in darkness. Next, 20 μL/well of standard peptide (100 ng/ml) and samples were added to the appropriate wells, followed by the addition of 100 μL/well of HRP-labelled antibody (generated as described above) diluted in assay buffer to the concertation of 200 ng/ml and incubated for 1 h at 20° C. with constant shaking (300 rpm) in darkness. After each incubation step, wells were washed five times with standard washing buffer (20 mM Tris, 50 mM NaCl, pH 7.2). […] The relative light units were measured at all wavelengths within 5 min on a microplate luminometer reader (SpectraMax M5, Molecular Devices, CA, USA). […] Data were analyzed using the SoftMax Pro version 7.0.3 software.
as §1
(In general: ELISA stands for enzyme-linked immunosorbent assay.)

Test [3] addresses T2, Truncated standard peptide (Truncated …). The description is as above. As to the method:
as §2, §1

In test [4] the target is T3, Elongated standard peptide (Elongated …). Described as above. As to the method: as §2, §1
Test [5] deals with B1. Nature of the test: ELISA screening of hybridoma clones / specificity test.
The target of test [6] is T4, Non-sense coating peptide …. Nature of the test: CLIA/ELISA on a streptavidin plate coated with the non-sense coating peptide.

What is called IC50 is the concentration needed to halve the response being measured. B1 yielded an IC50 in test [1] of 3.86 ng/mL.

For the molecule B2, the binding result in test [2] is “no binding”; in test [3], “no binding”; in test [4], “no binding”; in test [5] it was “binds”; in test [6] it was “no binding”.

These data come from patent publication US20260259223A1 (NORDIC BIOSCIENCE A S, published 2026).
